This is an account of results in paper PMC12099300.

The target in experiment [1] is atezolizumab. Kind of experiment: ELISA; antibodies coated on MaxiSorp plates (5 µg/mL, 50 µL, overnight 4°C), blocked with 1% BSA; PD-L1 or VISTA 50-0.0003 µg/mL in PBS, 1 h RT; detected by anti-His-tag antibody and Strep-HRP; EC50 by nonlinear regression.
Experiment [2] deals with onvatilimab. Described as above.
onvatilimab, sequence (heavy, as listed by the source, chain 1 of 2): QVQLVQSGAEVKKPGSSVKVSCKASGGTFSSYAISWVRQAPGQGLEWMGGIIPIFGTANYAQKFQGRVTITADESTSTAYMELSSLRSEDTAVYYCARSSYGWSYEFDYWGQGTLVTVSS
onvatilimab, sequence (light, as listed by the source, chain 2 of 2): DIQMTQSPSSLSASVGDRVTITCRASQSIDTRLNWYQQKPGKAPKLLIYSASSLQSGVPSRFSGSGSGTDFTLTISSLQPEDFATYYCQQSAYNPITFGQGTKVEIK

In experiment [1], “PD-L1 (programmed cell death ligand 1) (from UniProt Q9NZQ7 19-290) (natural protein)” had a concentration for a half-maximal effect (EC50) of 0.07 nM.
In turn, “VISTA (V-type immunoglobulin suppressor of T-cell activation) (from UniProt Q9H7M9 33-311) (natural protein)” displayed an EC50 in experiment [2] of 0.0001 nM.

One may read the EC50 as the midpoint of the concentration-response curve. High values mean a less potent agent, low ones a more potent agent.
